Measurements from publication PMC9482650, “Quantitative fragmentomics allow affinity mapping of interactomes” (Nature Communications, 2022).
One block for each binder: values may come before it.

Key:
Assay in all cases: holdup assay
Set-up in all cases: key: below the threshold = too weak to quantify, mostly under pKd 3.1 to 4
NHERF3_3, Q5T2W1 = molecular target: T1, NHERF3_3, Q5T2W1
T1 sequence (Q5T2W1 238-333, limits assumed, looked up): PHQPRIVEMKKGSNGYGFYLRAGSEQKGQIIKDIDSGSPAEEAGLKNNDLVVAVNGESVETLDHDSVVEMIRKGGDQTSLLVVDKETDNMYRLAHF

APBA2_1, Q99767 = molecular target: T2, APBA2_1, Q99767
T2 sequence (Q99767 563-664, limits assumed, looked up): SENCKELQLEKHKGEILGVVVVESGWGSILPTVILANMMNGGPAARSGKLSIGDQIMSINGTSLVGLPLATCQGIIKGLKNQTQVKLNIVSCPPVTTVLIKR

PDLIM1, O00151 = molecular target: PDLIM1, O00151
LNX1_2, Q8TBB1 = molecular target: LNX1_2, Q8TBB1
DLG3_1, Q92796 = molecular target: T3, DLG3_1, Q92796
T3 sequence (Q92796 125-227, limits assumed, looked up): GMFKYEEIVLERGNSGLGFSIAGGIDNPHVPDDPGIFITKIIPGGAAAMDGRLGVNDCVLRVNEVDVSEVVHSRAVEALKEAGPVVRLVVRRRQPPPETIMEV

NOS1, P29475 = molecular target: NOS1, P29475
MAGI1_2, Q96QZ7 = molecular target: MAGI1_2, Q96QZ7
SNTA1, Q13424 = molecular target: T4, SNTA1, Q13424
T4 sequence (Q13424 82-180, limits assumed, looked up): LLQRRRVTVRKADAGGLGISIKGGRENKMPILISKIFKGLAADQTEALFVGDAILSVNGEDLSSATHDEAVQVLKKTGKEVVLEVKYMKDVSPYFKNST

RAPGEF6, Q8TEU7 = molecular target: T5, RAPGEF6, Q8TEU7
T5 sequence (Q8TEU7 525-625, limits assumed, looked up): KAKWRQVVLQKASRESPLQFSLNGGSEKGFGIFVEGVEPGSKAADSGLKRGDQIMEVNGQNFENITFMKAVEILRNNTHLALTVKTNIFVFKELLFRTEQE

DLG1_2, Q12959 = molecular target: DLG1_2, Q12959
TJP3_3, O95049 = molecular target: T6, TJP3_3, O95049
T6 sequence (O95049 375-456, limits assumed, looked up): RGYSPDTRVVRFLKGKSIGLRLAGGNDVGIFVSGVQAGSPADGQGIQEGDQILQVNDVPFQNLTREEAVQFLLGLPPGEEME

LNX2_2, Q8N448 = molecular target: T7, LNX2_2, Q8N448
T7 sequence (Q8N448 334-432, limits assumed, looked up): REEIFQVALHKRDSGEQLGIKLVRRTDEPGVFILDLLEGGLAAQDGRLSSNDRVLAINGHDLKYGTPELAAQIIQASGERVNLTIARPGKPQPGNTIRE

SCRIB_3, Q14160 = molecular target: SCRIB_3, Q14160
PICK1, Q9NRD5 = molecular target: PICK1, Q9NRD5
NHERF3_1, Q5T2W1 = molecular target: T8, NHERF3_1, Q5T2W1
T8 sequence (Q5T2W1 4-100, limits assumed, looked up): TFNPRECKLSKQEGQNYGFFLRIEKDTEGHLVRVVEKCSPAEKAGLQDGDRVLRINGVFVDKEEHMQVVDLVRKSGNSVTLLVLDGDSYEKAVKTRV

Inadl_2, Q8NI35 = molecular target: Inadl_2, Q8NI35
AHNAK1, Q09666 = molecular target: AHNAK1, Q09666
GORASP1, Q9BQQ3 = molecular target: GORASP1, Q9BQQ3
Inadl_9, Q8NI35 = molecular target: Inadl_9, Q8NI35
LDB3, O75112 = molecular target: LDB3, O75112
NHERF4_1, Q86UT5-2 = molecular target: NHERF4_1, Q86UT5-2
MPP6, Q9NZW5 = molecular target: T9, MPP6, Q9NZW5
T9 sequence (Q9NZW5 125-219, limits assumed, looked up): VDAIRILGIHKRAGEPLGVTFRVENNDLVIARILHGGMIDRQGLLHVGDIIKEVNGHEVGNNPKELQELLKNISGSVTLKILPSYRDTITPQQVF

DLG1_3, Q12959 = molecular target: DLG1_3, Q12959
MPDZ_10, O75970 = molecular target: T10, MPDZ_10, O75970
T10 sequence (O75970 1624-1722, limits assumed, looked up): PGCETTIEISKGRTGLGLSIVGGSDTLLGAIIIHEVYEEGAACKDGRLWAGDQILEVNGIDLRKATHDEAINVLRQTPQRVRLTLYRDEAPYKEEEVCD

HTRA3, P83110 = molecular target: T11, HTRA3, P83110
T11 sequence (P83110 354-453, limits assumed, looked up): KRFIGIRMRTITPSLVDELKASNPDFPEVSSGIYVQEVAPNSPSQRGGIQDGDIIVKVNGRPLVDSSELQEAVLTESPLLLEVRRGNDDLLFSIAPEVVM

DFNB31_3, Q9P202 = molecular target: T12, DFNB31_3, Q9P202
T12 sequence (Q9P202 811-907, limits assumed, looked up): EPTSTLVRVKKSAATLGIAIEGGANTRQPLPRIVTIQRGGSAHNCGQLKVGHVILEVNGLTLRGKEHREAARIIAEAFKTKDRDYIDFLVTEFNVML

[1] = plain residues with an end cap or a label only (N-terminal biotin on a linker: ado-ado)
[2] = plain residues with an end cap or a label only (N-terminal biotin on a linker: ahx)

Sequence of PDLIM1, O00151 (O00151 1-87): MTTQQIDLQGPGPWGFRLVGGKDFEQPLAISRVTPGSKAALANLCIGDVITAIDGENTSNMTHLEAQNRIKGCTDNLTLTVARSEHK
Sequence of NHERF4_1, Q86UT5-2 (Q86UT5 other isoform, or with tags, fused parts or gaps): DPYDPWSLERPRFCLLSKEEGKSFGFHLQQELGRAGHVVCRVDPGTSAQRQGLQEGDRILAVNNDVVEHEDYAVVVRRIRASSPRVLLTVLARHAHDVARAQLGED
Sequence of LDB3, O75112 (O75112 1-94): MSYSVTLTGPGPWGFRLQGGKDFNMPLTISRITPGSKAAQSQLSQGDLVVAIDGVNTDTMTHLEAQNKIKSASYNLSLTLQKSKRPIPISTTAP
Sequence of Inadl_2, Q8NI35 (Q8NI35 238-335): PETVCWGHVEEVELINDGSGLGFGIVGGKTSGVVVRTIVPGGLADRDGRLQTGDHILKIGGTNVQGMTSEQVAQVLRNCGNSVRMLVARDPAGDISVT
Sequence of AHNAK1, Q09666 (Q09666 4-100): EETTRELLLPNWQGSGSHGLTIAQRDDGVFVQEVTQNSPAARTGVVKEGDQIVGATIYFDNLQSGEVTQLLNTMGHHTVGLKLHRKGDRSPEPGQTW
Sequence of NOS1, P29475 (P29475 9-101): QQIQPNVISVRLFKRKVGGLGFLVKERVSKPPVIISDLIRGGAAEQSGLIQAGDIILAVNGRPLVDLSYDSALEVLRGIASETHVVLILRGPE
Sequence of LNX1_2, Q8TBB1 (Q8TBB1 371-470): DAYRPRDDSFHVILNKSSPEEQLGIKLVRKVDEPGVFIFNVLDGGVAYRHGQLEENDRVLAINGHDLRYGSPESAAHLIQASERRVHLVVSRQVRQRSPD
Sequence of GORASP1, Q9BQQ3 (Q9BQQ3 1-208): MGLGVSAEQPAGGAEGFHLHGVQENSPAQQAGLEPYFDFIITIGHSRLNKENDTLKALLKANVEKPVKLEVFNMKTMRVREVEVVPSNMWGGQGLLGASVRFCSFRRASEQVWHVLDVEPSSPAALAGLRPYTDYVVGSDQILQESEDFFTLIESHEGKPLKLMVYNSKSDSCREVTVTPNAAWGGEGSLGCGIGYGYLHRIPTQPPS
Sequence of DLG1_2, Q12959 (Q12959 314-412): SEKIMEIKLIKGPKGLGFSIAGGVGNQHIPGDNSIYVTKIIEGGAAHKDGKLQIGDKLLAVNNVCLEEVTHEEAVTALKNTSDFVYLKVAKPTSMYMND
Sequence of Inadl_9, Q8NI35 (Q8NI35 1530-1615): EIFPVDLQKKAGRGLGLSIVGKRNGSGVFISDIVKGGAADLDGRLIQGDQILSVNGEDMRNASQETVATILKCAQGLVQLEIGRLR
Sequence of SCRIB_3, Q14160 (Q14160 999-1103): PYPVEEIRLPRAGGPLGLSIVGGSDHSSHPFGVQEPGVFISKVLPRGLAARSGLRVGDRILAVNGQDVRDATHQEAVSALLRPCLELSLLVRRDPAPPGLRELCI
Sequence of DLG1_3, Q12959 (Q12959 457-571): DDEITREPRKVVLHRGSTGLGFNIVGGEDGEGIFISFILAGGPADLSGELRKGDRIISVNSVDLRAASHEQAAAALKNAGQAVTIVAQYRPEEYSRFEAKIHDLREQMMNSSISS
Sequence of MAGI1_2, Q96QZ7 (Q96QZ7 456-580): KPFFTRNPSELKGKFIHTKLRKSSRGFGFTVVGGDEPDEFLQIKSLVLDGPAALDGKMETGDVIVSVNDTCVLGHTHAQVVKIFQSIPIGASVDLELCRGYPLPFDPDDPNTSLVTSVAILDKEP
Sequence of PICK1, Q9NRD5 (Q9NRD5 17-115): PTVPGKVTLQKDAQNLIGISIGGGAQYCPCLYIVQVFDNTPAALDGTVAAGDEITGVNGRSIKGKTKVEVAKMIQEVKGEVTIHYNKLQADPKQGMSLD

- pKd (NHERF3_3, Q5T2W1; [1]): below the threshold
- pKd (APBA2_1, Q99767; [1]): below the threshold
- pKd (PDLIM1, O00151; [1]): below the threshold
- pKd (LNX1_2, Q8TBB1; [1]): below the threshold
- pKd (DLG3_1, Q92796; [1]): 4.23
- pKd (NOS1, P29475; [1]): 3.74
- pKd (MAGI1_2, Q96QZ7; [1]): 3.55
- pKd (SNTA1, Q13424; [1]): 4.46
- pKd (RAPGEF6, Q8TEU7; [1]): below the threshold
- pKd (DLG1_2, Q12959; [1]): 5.03
- pKd (TJP3_3, O95049; [1]): below the threshold
- pKd (LNX2_2, Q8N448; [1]): 4.3
- pKd (SCRIB_3, Q14160; [1]): 3.92
- pKd (PICK1, Q9NRD5; [1]): 4.13
- pKd (NHERF3_1, Q5T2W1; [1]): 4.7
- pKd (Inadl_2, Q8NI35; [1]): 3.5
- pKd (AHNAK1, Q09666; [1]): below the threshold
- pKd (GORASP1, Q9BQQ3; [1]): below the threshold
- pKd (Inadl_9, Q8NI35; [1]): 3.73
- pKd (LDB3, O75112; [1]): below the threshold
- pKd (NHERF4_1, Q86UT5-2; [1]): below the threshold
- pKd (MPP6, Q9NZW5; [1]): below the threshold
- pKd (DLG1_3, Q12959; [1]): below the threshold
- pKd (MPDZ_10, O75970; [1]): below the threshold
- pKd (HTRA3, P83110; [1]): below the threshold
- pKd (DFNB31_3, Q9P202; [1]): 3.88
Binder: DPAESMESLV [PTPRG, P23470]

- pKd (NHERF3_3, Q5T2W1; [2]): below the threshold
- pKd (APBA2_1, Q99767; [2]): below the threshold
- pKd (PDLIM1, O00151; [2]): below the threshold
- pKd (LNX1_2, Q8TBB1; [2]): below the threshold
- pKd (DLG3_1, Q92796; [2]): below the threshold
- pKd (NOS1, P29475; [2]): 3.6
- pKd (MAGI1_2, Q96QZ7; [2]): 4.83
- pKd (SNTA1, Q13424; [2]): below the threshold
- pKd (RAPGEF6, Q8TEU7; [2]): below the threshold
- pKd (DLG1_2, Q12959; [2]): 4.3
- pKd (TJP3_3, O95049; [2]): below the threshold
- pKd (LNX2_2, Q8N448; [2]): below the threshold
- pKd (SCRIB_3, Q14160; [2]): 3.67
- pKd (PICK1, Q9NRD5; [2]): below the threshold
- pKd (NHERF3_1, Q5T2W1; [2]): 4.29
- pKd (Inadl_2, Q8NI35; [2]): below the threshold
- pKd (AHNAK1, Q09666; [2]): below the threshold
- pKd (GORASP1, Q9BQQ3; [2]): below the threshold
- pKd (Inadl_9, Q8NI35; [2]): below the threshold
- pKd (LDB3, O75112; [2]): below the threshold
- pKd (NHERF4_1, Q86UT5-2; [2]): below the threshold
- pKd (MPP6, Q9NZW5; [2]): below the threshold
- pKd (DLG1_3, Q12959; [2]): 4.11
- pKd (MPDZ_10, O75970; [2]): 3.97
- pKd (HTRA3, P83110; [2]): below the threshold
- pKd (DFNB31_3, Q9P202; [2]): below the threshold
Binder: QPRTWLQSPV [RTKN, Q9BST9]

- pKd (NHERF3_3, Q5T2W1; [1]): below the threshold
- pKd (APBA2_1, Q99767; [1]): below the threshold
- pKd (PDLIM1, O00151; [1]): below the threshold
- pKd (LNX1_2, Q8TBB1; [1]): below the threshold
- pKd (DLG3_1, Q92796; [1]): 3.55
- pKd (NOS1, P29475; [1]): below the threshold
- pKd (MAGI1_2, Q96QZ7; [1]): 4.85
- pKd (SNTA1, Q13424; [1]): below the threshold
- pKd (RAPGEF6, Q8TEU7; [1]): below the threshold
- pKd (DLG1_2, Q12959; [1]): 4.65
- pKd (TJP3_3, O95049; [1]): below the threshold
- pKd (LNX2_2, Q8N448; [1]): 3.5
- pKd (SCRIB_3, Q14160; [1]): 4.26
- pKd (PICK1, Q9NRD5; [1]): below the threshold
- pKd (NHERF3_1, Q5T2W1; [1]): 4.57
- pKd (Inadl_2, Q8NI35; [1]): below the threshold
- pKd (AHNAK1, Q09666; [1]): below the threshold
- pKd (GORASP1, Q9BQQ3; [1]): below the threshold
- pKd (Inadl_9, Q8NI35; [1]): below the threshold
- pKd (LDB3, O75112; [1]): below the threshold
- pKd (NHERF4_1, Q86UT5-2; [1]): 3.62
- pKd (MPP6, Q9NZW5; [1]): 3.59
- pKd (DLG1_3, Q12959; [1]): below the threshold
- pKd (MPDZ_10, O75970; [1]): below the threshold
- pKd (HTRA3, P83110; [1]): below the threshold
- pKd (DFNB31_3, Q9P202; [1]): 4
Binder: PSHPRLQTHV [KIRREL2, Q6UWL6]
